From patent EP1100818B1 (WHITEHEAD INSTITUTE FOR BIOMEDICAL RESEARCH, dated 2013)

How the values were obtained:
[1] = target: N36 peptide of HIV-1 gp41 (HIV-1); experiment: circular dichroism at 222 nm, thermal melt, 10 µM of each peptide, PBS pH 7.0
[2] = target: N36 peptide of HIV-1 gp41 (HIV-1); experiment: circular dichroism at 222 nm, thermal melt
[3] = target: T1, HIV-1 HXB2 envelope glycoprotein (gp41 subunit, N-helix coiled-coil) (HIV-1 (HXB2), UniProt P04578 512-856); experiment: cell-based or functional assay
[4] = target: T1, HIV-1 HXB2 envelope glycoprotein (gp41 …); experiment: cell-based or functional assay; remark: listed apart in the source

Molecule: C34 Met^629→Ala (peptide)
- Tm (apparent melting temperature of the N36/C34 complex) [1]: 66 °C

Molecule: C34 Arg^633→Ala (peptide)
- Tm (apparent melting temperature of the N36/C34 complex) [1]: 65 °C

Molecule: C34 Trp^631→Ala (peptide)
- Tm (apparent melting temperature of the N36/C34 complex) [1]: 37 °C

Molecule: C34 Trp^631→Phe (peptide)
- Tm (apparent melting temperature of the N36/C34 complex) [2]: 59 °C

Molecule: C34 Trp^628→Ala (peptide)
- Tm (apparent melting temperature of the N36/C34 complex) [1]: 53 °C

Molecule: C34 Trp^631→Gly (peptide)
- Tm (apparent melting temperature of the N36/C34 complex) [2]: 35 °C

Molecule: C34 Ile^635→Ala (peptide)
- Tm (apparent melting temperature of the N36/C34 complex) [1]: 55 °C

Molecule: C34 Trp^631→Val (peptide)
- Tm (apparent melting temperature of the N36/C34 complex) [2]: 43 °C

Molecule: C34 peptide of HIV-1 gp41, wildtype
- Tm (apparent melting temperature of the N36/C34 complex) [1]: 66 °C

Molecule: C34 Trp^631→Leu (peptide)
- Tm (apparent melting temperature of the N36/C34 complex) [2]: 50 °C

Molecule: C34 Trp^631→Abu (peptide)
- Tm (apparent melting temperature of the N36/C34 complex) [2]: 43 °C

Molecule: C34 Trp^631→Nal (peptide)
- Tm (apparent melting temperature of the N36/C34 complex) [2]: 62 °C

B1: C34 Trp^631→Phe (peptide)
peptide: Ac-WMEFDREINNYTSLIHSLIEESQNQQEKNEQELL-NH2
- IC50 (nanomolar) cell fusion [3]: 1.6 nM
- IC50 (nanomolar) virus entry [3]: 3.6 nM

B2: C34 Ile^635→Ala (peptide)
peptide: Ac-WMEWDREANNYTSLIHSLIEESQNQQEKNEQELL-NH2
- IC50 (nM) cell fusion [4]: 0.96 nM
- IC50 (nM) viral entry [4]: 4.1 nM
- decrease in inhibitory activity against wildtype C34 [3]: ~2 fold

B3: C34 Trp^631→Val (peptide)
peptide: Ac-WMEVDREINNYTSLIHSLIEESQNQQEKNEQELL-NH2
- IC50 (nanomolar) cell fusion [3]: 4.5 nM
- IC50 (nanomolar) virus entry [3]: 13 nM

B4: C34 Trp^631→Ala (peptide)
peptide: Ac-WMEADREINNYTSLIHSLIEESQNQQEKNEQELL-NH2
- decrease in inhibitory activity against wildtype C34 [3]: ~30 fold

B5: C34 Trp^631→Gly (peptide)
peptide: Ac-WMEGDREINNYTSLIHSLIEESQNQQEKNEQELL-NH2
- IC50 (nanomolar) cell fusion [3]: 25 nM
- IC50 (nanomolar) virus entry [3]: 38 nM

B6: C34 Arg^633→Ala (peptide)
peptide: Ac-WMEWDAEINNYTSLIHSLIEESQNQQEKNEQELL-NH2
- IC50 (nM) cell fusion [4]: 0.76 nM
- IC50 (nM) viral entry [4]: 2.6 nM

B7: C34 Trp^631→Leu (peptide)
peptide: Ac-WMELDREINNYTSLIHSLIEESQNQQEKNEQELL-NH2
- IC50 (nanomolar) cell fusion [3]: 3.2 nM
- IC50 (nanomolar) virus entry [3]: 5.3 nM
